Test results: publication PMC4284786, “Refolded scFv Antibody Fragment against Myoglobin Shows Rapid Reaction Kinetics” (International Journal of Molecular Sciences, 2014)
Each block holds one binder with its values, some of them ahead of it.

Assays:
[1] = target: T1, human myoglobin (human, UniProt P02144 1-154); test: BLI
T1 chain: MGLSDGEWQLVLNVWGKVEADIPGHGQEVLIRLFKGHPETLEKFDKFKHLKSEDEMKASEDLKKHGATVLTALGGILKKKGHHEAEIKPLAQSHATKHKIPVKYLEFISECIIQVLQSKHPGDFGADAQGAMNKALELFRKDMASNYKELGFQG

[2] = target: T1, human myoglobin; test: BLI
[3] = target: T2, equine myoglobin (Equus caballus, UniProt P68082); test: ELISA; proteins coated on a 96-well plate (human myoglobin 5 μg/mL in carbonate buffer pH 9.6, 4 °C, 16 h), blocked with BSA in PBST; scFv or premature antibody added for 1 h at 37 °C; scFv detected by anti-6x His tag antibody and HRP-conjugated secondary antibody; scFv 1.9 μg/mL, IgG2-7Ds 0.5 μg/mL in the comparison of proteins; settings: both partners purified
T2 construct: myoglobin, equine

[4] = target: T3, conalbumin (Gallus gallus (assumed), UniProt P02789); test: as above; settings: both partners purified
T3 construct: conalbumin (ovotransferrin)

[5] = target: T4, human myoglobin (Homo sapiens, UniProt P02144); test: BLI; Octet Red; human myoglobin (5 μg/mL in PBS, pH 7.4) immobilised on APS sensor tip at 30 °C for 900 s, blocked with 0.5% casein in PBS; scFv in casein-PBS; BSA as negative control; settings: both partners purified
T4 construct: myoglobin, human; also called myoglobin antigen; human myoglobin antigen

[6] = target: T5, myoglobin peptide, aa 144–154 (Homo sapiens, UniProt P02144); test: ELISA; synthetic peptides of human myoglobin and human cardiac troponin I; scFv 1.9 μg/mL, IgG2-7Ds 0.5 μg/mL; settings: both partners purified
T5 construct: also called C-terminal region of the myoglobin peptide; source: synthetic peptide
T5 chain: ASNYKELGFQG

T3 sequence (P02789 20-705): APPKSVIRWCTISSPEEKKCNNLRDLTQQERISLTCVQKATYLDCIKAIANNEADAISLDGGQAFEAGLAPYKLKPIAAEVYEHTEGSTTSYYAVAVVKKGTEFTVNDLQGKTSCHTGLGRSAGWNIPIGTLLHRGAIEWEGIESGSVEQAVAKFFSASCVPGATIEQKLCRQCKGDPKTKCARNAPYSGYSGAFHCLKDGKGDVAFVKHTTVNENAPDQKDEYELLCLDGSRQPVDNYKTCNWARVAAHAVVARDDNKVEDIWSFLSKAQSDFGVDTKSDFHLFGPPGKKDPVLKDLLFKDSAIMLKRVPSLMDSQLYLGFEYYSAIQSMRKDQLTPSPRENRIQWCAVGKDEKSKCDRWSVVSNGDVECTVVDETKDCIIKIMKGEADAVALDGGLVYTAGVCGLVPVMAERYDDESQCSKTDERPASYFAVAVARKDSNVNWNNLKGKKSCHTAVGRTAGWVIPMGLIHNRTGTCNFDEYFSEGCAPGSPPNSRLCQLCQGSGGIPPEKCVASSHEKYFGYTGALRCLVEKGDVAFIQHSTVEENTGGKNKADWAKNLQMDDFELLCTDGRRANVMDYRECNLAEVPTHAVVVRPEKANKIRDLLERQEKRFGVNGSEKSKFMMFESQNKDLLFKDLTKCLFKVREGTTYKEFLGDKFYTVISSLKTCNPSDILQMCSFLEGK
T2 sequence (P68082 whole entry): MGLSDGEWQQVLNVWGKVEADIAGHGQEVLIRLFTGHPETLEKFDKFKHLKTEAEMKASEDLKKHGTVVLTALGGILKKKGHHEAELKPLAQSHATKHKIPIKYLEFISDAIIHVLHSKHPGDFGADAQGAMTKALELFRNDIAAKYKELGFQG

- koff [1]: 0.0104 s⁻¹
- Kd [2]: 2.89 nM
- binding result [3]: binds
- binding result [4]: no binding (tested: IgG2-7Ds 0.5 μg/mL)
B1: parent premature antibody Myo2-7Ds (whole IgG) (antibody, V domains shown)
VH: QIQLVQSGPELKKPGETVKISCKASGYTFTDYSIHWVRQAPEKGLKWMGWINTETGEPTYADDFTGRFAFSLETSASTAYLQITNLKNEDTATYFCARRFTTTTWFAYWGQGTLVTVSA
VL: DVLMTQTPLSLPVSLGDQASISCRSSQNIVHSSGNTYLEWYLQKPGQSPRFLIYKVSNRFSGVPDRFSGSGSGTDFTLKISRVEAEDLGVYYCFQGSHVPYTFGGGTKLEIK
notes: as the VH of m1; constant part of the heavy chain; as the VL of m1; constant part of the light chain; IgG; The variable regions were the template of the scFv m1; also called IgG2-7Ds; parental antibody

- Kd [5]: 10 nM
- koff [5]: 0.00629 s⁻¹
- kon [5]: 93200 M⁻¹ s⁻¹
- binding result [6]: binds
- Kd [2]: 61.1 nM
- binding result [3]: binds
- binding result [4]: no binding (tested: scFv 1.9 μg/mL)
B2: refolded scFv-Myo2-7Ds (scFv, V domains shown)
VH: B1 VH
VL: B1 VL
notes: VH of the monoclonal antibody Myo2-7Ds; (GGGGS) x 3 linker between VH and VL; VL of the monoclonal antibody Myo2-7Ds; Plasmid pET28a-scFv-Myo2-7Ds6xH, no pelB leader; A TEV cleavage site stands between the N-terminal His6 tag and the scFv; no cleavage is reported; The abstract gives the order VH-VL, but both printed primers seem to encode ends of a light chain; also called 2-7ds …
